Experimental data published in publication PMC3471852.

Molecular target: β-arrestin-2 (UniProt P32121)
Test: anti-HA co-IP after DSS cross-linking, anti-Flag blot
Conditions: reference: wild type C3aR

Substance | binding against the reference (sites S459,T463,S465,T466,S470,S475,S479,T480,T481) | other: percent decrease vs wild type (sites T463,S465,T466,S470)
C3a receptor (C3aR) (from UniProt Q16581) MT7 (S459A plus MT1 and MT2 substitutions) | lost | 
C3a receptor (C3aR) (from UniProt Q16581) MT2 (T463A/S465A/T466A/S470A) |  | 74%
